Measured values taken from US20090298769.

Legend:
[1] = system: control peptide DTANNPLF KEATSTFT-COOH
[2] = system: control peptide KEATSTFTNIT FRGTCOOH
[3] = system: recombinant β3 integrin cytoplasmic tail-GST fusion protein
[4] = system: β3 integrin cytoplasmic peptide specific for tyrosine-747 (DTANNPLYpKEATSTFT-COOH)
[5] = system: β3 integrin cytoplasmic peptide specific for tyrosine-759 (KEATSTFTNITYpRGT-COOH)

Row | Substance | [γ-32P] ATP incorporation, in vitro kinase assay (control peptide, lower incorporation) [1] | [γ-32P] ATP incorporation, in vitro kinase assay (control peptide, lower incorporation) [2] | [γ-32P] ATP incorporation, in vitro kinase assay [3] | [γ-32P] ATP incorporation, in vitro kinase assay [4] | [γ-32P] ATP incorporation, in vitro kinase assay [5]
1 | c-Src of HUVEC (endogenous) | a dramatic increase in [γ-^32P] ATP incorporation was observed as compared to control peptides devoid of tyrosine motifs | a dramatic increase in [γ-^32P] ATP incorporation was observed as compared to control peptides devoid of tyrosine motifs | the immunoprecipitated c-Src can phosphorylate β3 integrin cytoplasmic domain | In the presence of Tyr-747/Tyr-759 β3 integrin cytoplasmic peptide, a dramatic increase in [γ-^32P] ATP incorporation was observed as compared to control peptides devoid of tyrosine motifs | In the presence of Tyr-747/Tyr-759 β3 integrin cytoplasmic peptide, a dramatic increase in [γ-^32P] ATP incorporation was observed as compared to control peptides devoid of tyrosine motifs
2 | purified, recombinant full-length c-Src | – | – | Recombinant purified c-Src also phosphorylated the β3 integrin whereas no phosphorylation was observed without the substrate | – | –
